Ca2+-triggered insulin secretion in cultured pancreatic islets of Noc2-/- mice (ng/islet/30 min) data for one substance are collected here from patent US20060021073A1.

The target of the assay is Rab3. The experiment in a line: cell-based or functional assay.

“wild-type Noc2 expressed from adenovirus Ad-Noc2 wt in pancreatic islets of Noc2-/- mice (from UniProt Q768S4 1-302)” came in with a Ca2+-triggered insulin secretion in cultured pancreatic islets of Noc2-/- mice (ng/islet/30 min) of 1.2.
